# Reference: the supplement of paper PMC12764529
# ± gives the half width of the 95% confidence interval.
# Assay: folding stability dG unfold (combined trypsin and chymotrypsin); higher = more stable
# Procedure: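 Folding stability of de novo designed mini-proteins (<80 aa, no Cys; designed by TrROS, TrMRF, ProteinMPNN and the joint model) was measured by cDNA display proteolysis with trypsin and chymotrypsin. Each protease was used at 11 concentrations in a threefold dilution series plus a no-protease condition. K50 was inferred by Bayesian fitting of sequencing counts, and dG unfold was derived against a sequence-predicted unfolded-state K50 (Tsuboyama et al. method). Sequences shown include variable-length N-terminal GS-type padding (SAGGSAGG...) inside a display construct carrying a PA tag. Rows were kept only if the AF2 dimer inter-PAE was >15, to exclude likely homo-oligomers.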
row,Sequence,folding stability dG unfold
1,EPNYLVQIEIEPRMYQKDEDGKPLKPQPMKQPFFGPADDPEQVKDNLRDNFGPEVEIDEVMPLEDINEGQFS [r1_493_TrROS],< -1 kcal/mol
2,NWVVWAKLTNPEEGERKTYEVPVPPGEEPTEEEILDQAKDMLGRPKEDLRKNVEIEPYPENGWAEIEIRIRS [r1_285_TrROS],< -1 kcal/mol
3,PDDPEEQREQMPPIPPEWAEELARKFAEKLGDEEVTEVEVDDITPNGYIEVEIENPDGGEVKIEIPMDDIMS [r1_435_TrROS],< -1 kcal/mol
4,SAAEWLKEEGLKVKDVEVTKPRENPNGKREMEYRIKVRLPNKKVEVPIRMPSDSPETALNMAHNILRELSAG [r14_726_TrROS],< -1 kcal/mol
5,SAELVLASVEKKGDEVIAVTAFPDGLFVKVKTKDGKIFAAPLPAENIGPQVEALKKAFPGVEVEPFLAESAG [r14_528_TrMRF],< -1 kcal/mol
6,SAGGANAKDVKRDGNNIQITFDGQILFKIQPPKPVPPVRVRHPDGKEHHAPLEDLKKENPDNWEIEPPSAGG [r13_802_TrROS],< -1 kcal/mol
7,SAGGASVPVEPRLDASGRERVRATLEIRPTLPNGTRTSRAVPVEFASRAELRAFIAARAPTADAVLLSAGGS [r16_652_JUSTAS],< -1 kcal/mol
8,SAGGDDFRVERFHPGEPREPREIDGDADDLLEELPPNDSYVHIEFKDDGGKKRIQMDTPEDLKNFIRDSAGG [r13_299_TrROS],< -1 kcal/mol
9,SAGGDKKKKEVEFRFPGMPFRVSIQVDPDEGKIPIEIYNPDNGQSLDDLKSNPAMQQMVREAANALKSAGGS [r16_96_TrROS],< -1 kcal/mol
10,SAGGDPDWKPIEFNLQRTVKPGDPEQIEEKAREFFEMFGIKSVTDVERERNPEGQQTVQASVKIRFPDSAGG [r13_222_TrROS],< -1 kcal/mol
11,SAGGDWIPFRIKQYDPKDGKPKREWPIQYNPEDGMMQIRPPDGKKHEFPMPMQEILENLPPGFEIEPSAGGS [r16_543_TrROS],< -1 kcal/mol
12,SAGGEKVPLKIRDPDNGNPHEFDKIESIDSVEMQKPPDNRQQYSIRFPGDGRPIMIDDPEDIEEALKSAGGS [r8_206_TrROS],< -1 kcal/mol
13,SAGGGMNEPVPKVTVTTTSVSVEPPPDLPGIAKVYTPTVITTDDEAVAEAIAEEIAAQPDVEYEDTGASAGG [r13_606_JUSTAS],< -1 kcal/mol
14,SAGGGPEVVETVETPATETEVSRLPNGELLVTTTTQVTTFVRVGDELRRERVETVTTTEIVSPEELGSAGGS [r16_109_JUSTAS],< -1 kcal/mol
15,SAGGGSIEDSNLSEEEIKEILSKLPEPVTVTVKRKEVKKVTYFENGKVKEEKIVEKEKTEVYYFPPKKSAGG [r13_632_JUSTAS],< -1 kcal/mol
16,SAGGGSKIIEVPVIVEPDEDLGKVAEEIAKKIFPENEKVIVKVEKFENSYRIEIFNPEDGKPIIEGEGSAGG [r13_724_TrMRF],< -1 kcal/mol
17,SAGGGVSYSFSSSGSGSTVTIYIPGSGKTLKRKVNPNDTITDIPSSAKPYKVVKEVNDEKPVEEELGSAGGS [r8_487_JUSTAS],-0.855 ± 0.72 kcal/mol
18,SAGGIMFDSPEEAEELADNGRIKPVNRGKQKHKDNGKEREHEMYMVKIKDPEDNKPVQVMIPADQIRSAGGS [r16_271_TrROS],< -1 kcal/mol
19,SAGGKIGQEVDPGEPITIPIVKRDGDNPKKEKINFRLPPGMRIRPKDDNIMIRFPGNGQEQTIPLKDLSAGG [r13_275_TrROS],< -1 kcal/mol
20,SAGGKNPEENDPEYQKPPKIPSRTIPFPAEQALAWAKELPGFDNIMVEAGGKWVEIDLDDGKIEPYGSAGGS [r16_214_TrROS],< -1 kcal/mol
21,SAGGKPPKIKIKVEHEPYPGNGRYYMEVELEDPDDGKPIEIPFRGDSPEEAEENAKEIAREIAKELKSAGGS [r8_480_TrROS],< -1 kcal/mol

row,Sequence,folding stability dG unfold
1,SAGGLPSPDAVVEEESLELSFESSSEVVVTKKKTTKKVLPNGKVETETEEEEEVVKATKEEIEKLKKESAGG [r13_544_JUSTAS],< -1 kcal/mol
2,SAGGLTITVTPSVSENEVVVPGTGKPRFPEPRETYTVTVTPAPDVSLEEVAAEIREKFPGRGYTLTPSAGGS [r8_30_JUSTAS],< -1 kcal/mol
3,SAGGMDDVIRKALEEATPPLEVKEELILTTEPTPRGTVITKTTRPIIKSPEPGTFVPEPVEVVPAALLSAGG [r19_11_JUSTAS],< -1 kcal/mol
4,SAGGMDPAEAREIAKEIMKKFEENGRPYYAKITIRPDPKIQDIDIMPPGEPLEPRADPGQRTIMFRFPSAGG [r13_693_TrROS],< -1 kcal/mol
5,SAGGMELKVVTLEATSGRREDAGLVPAALEEGARELALAHPELRILGADMEVEPLGEEYVARIPLVVGSAGG [r13_305_TrMRF],< -1 kcal/mol
6,SAGGMITTEREVEVPPDELDEVIERLKAEVAAQPLEPAEDIKILEIEEKEEKAVIKYKVTAKVEGEKLLSAG [r5_575_JUSTAS],< -1 kcal/mol
7,SAGGMKAEIVNPNLSPEELKELILKAPEAKDVDIEVKKTSAKGAVSAKITTKSEKEAETIKKAVEEAVSAGG [r13_580_JUSTAS],< -1 kcal/mol
8,SAGGMLRTVKTEKYSDGTVVEPVADAAGNVTYTIVKKRKKVFDGDKVYYSEPVTIFKNGVKVEEKNISSAGG [r13_1007_JUSTAS],< -1 kcal/mol
9,SAGGMNMYLRVEQYRKKPNGEPEKRELSIPFPPNEPVEEIADELQKDNPYIKVEIYSPGTGKQQTITISAGG [r13_663_TrROS],< -1 kcal/mol
10,SAGGMPPSFVVEEEKTVEGTSTVTLRKITNPSSSEDMLSEIVTPPDGSVTLILKKDNIIEVIPSSELSAGGS [r16_49_JUSTAS],< -1 kcal/mol
11,SAGGMPVVTPTTSTEPLPGGRAATVTTYTPPDGLVRQEVTLPPERRLFRLIDPATGEVVEKEEAELESAGGS [r16_735_JUSTAS],< -1 kcal/mol
12,SAGGMRIPLKQIKDVNHQPPPGNGYPMVTVKVRDGGKPHTHTIPNNMNWEEAKRMVEEALDEGPIEIESAGG [r13_225_TrROS],< -1 kcal/mol
13,SAGGMSPDATITENLVTDSEEEALAKLLADPSVAEVKPLGVKPDKTKEGKPVIIVPVELRIPADGVRLSAGG [r19_221_JUSTAS],< -1 kcal/mol
14,SAGGMTIDSPEEAVQAIEDNPDKPLTLLVPTDPSTGSVPEEVVQAFAEPGFPISRDPAGYWTITYPPSAGGS [r16_335_JUSTAS],< -1 kcal/mol
15,SAGGMTSTFRFSDSRGRLSVEKITPETGKVTVVEQGPSSPRRSTLNASPEEAFQQLKDANDFPASRLESAGG [r13_141_JUSTAS],< -1 kcal/mol
16,SAGGMVLSDVLPDGTVKPVSEEKIKEIVEKIEKEINAKIEVKIEKKWEGDKWVTTIPVTLIGLSPKLISAGG [r13_790_JUSTAS],< -1 kcal/mol
17,SAGGMVVEEEPTKTVVEEVVPLPGGSPVRRITEEVLLPDGSVASRTTVFRPPGEREEETSLDPVPPEASAGG [r13_21_JUSTAS],< -1 kcal/mol
18,SAGGNKTREREIPIPPGDSPDQAVDRVLEELEKHPDNNNVNINFRHPNGMPIKIRVTPNGKITEVEPYSAGG [r13_690_TrROS],< -1 kcal/mol
19,SAGGPGVEIVEVDPDGTLRVRAYDPATREPIAEAEIRIGALPVPPPVPGVPVLLADGELREVELPAALSAGG [r13_9_TrMRF],< -1 kcal/mol
20,SAGGPGYWRIKIYPKDTGKPHEFPIPLDQIRKVDPKNNKIEISFPNGPTIKIPDPEDIKAVQIEPWPSAGGS [r8_111_TrROS],< -1 kcal/mol
